For the data set, the target named is T1, PoSP:SGSH^OPT:His.
T1 chain: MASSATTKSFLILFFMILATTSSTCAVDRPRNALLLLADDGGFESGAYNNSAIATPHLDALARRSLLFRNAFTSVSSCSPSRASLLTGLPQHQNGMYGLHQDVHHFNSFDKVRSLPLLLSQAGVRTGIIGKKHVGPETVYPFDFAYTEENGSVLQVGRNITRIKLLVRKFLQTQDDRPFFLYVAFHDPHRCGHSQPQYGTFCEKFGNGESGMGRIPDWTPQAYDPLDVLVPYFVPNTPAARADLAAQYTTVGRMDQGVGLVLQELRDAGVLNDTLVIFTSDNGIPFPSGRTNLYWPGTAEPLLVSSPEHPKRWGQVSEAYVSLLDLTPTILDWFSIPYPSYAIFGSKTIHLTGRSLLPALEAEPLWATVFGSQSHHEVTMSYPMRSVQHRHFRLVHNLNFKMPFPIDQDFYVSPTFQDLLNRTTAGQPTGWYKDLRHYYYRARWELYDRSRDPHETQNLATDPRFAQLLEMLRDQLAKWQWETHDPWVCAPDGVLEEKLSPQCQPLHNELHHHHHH

B1: PoSP:SUMF1^OPT:His:KDEL (protein)
chain: MASSATTKSFLILFFMILATTSSTCAVDSQEAGTGAGAGSLAGSCGCGTPQRPGAHGSSAAAHRYSREANAPGPVPGERQLAHSKMVPIPAGVFTMGTDDPQIKQDGEAPARRVTIDAFYMDAYEVSNTEFEKFVNSTGYLTEAEKFGDSFVFEGMLSEQVKTNIQQAVAAAPWWLPVKGANWRHPEGPDSTILHRPDHPVLHVSWNDAVAYCTWAGKRLPTEAEWEYSCRGGLHNRLFPWGNKLQPKGQHYANIWQGEFPVTNTGEDGFQGTAPVDAFPPNGYGLYNIVGNAWEWTSDWWTVHHSVEETLNPKGPPSGKDRVKKGGSYMCHRSYCYRYRCAARSQNTPDSSASNLGFRCAADRLPTMDHHHHHHKDEL
Turning to B1, the sulfamidase enzymatic activity entry was “plant-made SGSH (S4 and S12) were enzymatically active only when SUMF1 was co-expressed”.

These data come from patent US20220251522.
